Data as given in the supplement of paper PMC9112550, “Optimization of the antimicrobial peptide Bac7 by deep mutational scanning” (BMC Biology, 2022).

System: Escherichia coli TOP10
Assay: shrunken log2 fold change of peptide-encoding DNA abundance (4.5 h post-induction vs induction); higher = less antimicrobial activity (less host growth inhibition)
Conditions: time post-induction: 4.5 h; library: site-saturation at positions 5, 18, 19, 20
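Also: peptides expressed intracellularly from a pBAD plasmid library in pooled LB shake-flask culture, induced with 0.3% L-arabinose, DNA abundance read by NGS, three biological replicates, DESeq2 with apeglm shrinkage.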

Sequence	shrunken log2 fold change
RRIRARPPRLPRPRPRPFMTPRP	0.178
RRIRNRPPRLPRPRPRPTMVPRP	-0.0433
RRIRVRPPRLPRPRPRPIYRPRP	-0.491
RRIRGRPPRLPRPRPRPFYDPRP	0.0844
RRIRTRPPRLPRPRPRPIMEPRP	-0.409
RRIRQRPPRLPRPRPRPMFGPRP	0.0107
RRIRHRPPRLPRPRPRPSCRPRP	-0.105
RRIRYRPPRLPRPRPRPLEDPRP	-0.00931
RRIRHRPPRLPRPRPRPYWHPRP	-0.666
RRIRYRPPRLPRPRPRPYYNPRP	-0.231
RRIRMRPPRLPRPRPRPPRVPRP	1.23
RRIRIRPPRLPRPRPRPIGKPRP	-0.13
RRIRQRPPRLPRPRPRPLLFPRP	-0.0219
RRIRLRPPRLPRPRPRPHPHPRP	-0.0325
RRIRDRPPRLPRPRPRPWITPRP	-0.123
RRIRQRPPRLPRPRPRPNLTPRP	-0.432
RRIRSRPPRLPRPRPRPEKWPRP	0.0431
RRIRCRPPRLPRPRPRPAQIPRP	0.00931
RRIRGRPPRLPRPRPRPIQKPRP	0.0229
RRIRWRPPRLPRPRPRPAPCPRP	0.322
RRIRFRPPRLPRPRPRPVHDPRP	0.0232
RRIRYRPPRLPRPRPRPKQMPRP	0.0213
RRIRFRPPRLPRPRPRPPGFPRP	0.268
RRIRKRPPRLPRPRPRPMPLPRP	-0.00591
RRIRIRPPRLPRPRPRPFFFPRP	-0.0692

Sequence	shrunken log2 fold change
RRIRARPPRLPRPRPRPWIMPRP	-0.332
RRIRNRPPRLPRPRPRPYDMPRP	-0.00776
RRIRFRPPRLPRPRPRPEGWPRP	0.807
RRIRFRPPRLPRPRPRPVNLPRP	0.025
RRIRCRPPRLPRPRPRPYTNPRP	-1.19
RRIRDRPPRLPRPRPRPPWRPRP	0.499
RRIRHRPPRLPRPRPRPFRYPRP	-0.737
RRIRSRPPRLPRPRPRPIDPPRP	0.017
RRIRCRPPRLPRPRPRPVTWPRP	-0.417
RRIRIRPPRLPRPRPRPQALPRP	-0.0788
RRIRLRPPRLPRPRPRPKAFPRP	0.0112
RRIRRRPPRLPRPRPRPFYIPRP	-0.039
RRIRDRPPRLPRPRPRPFIKPRP	-0.206
RRIRLRPPRLPRPRPRPEYYPRP	-0.0599
RRIRMRPPRLPRPRPRPKVHPRP	-0.132
RRIRYRPPRLPRPRPRPRARPRP	2.17
RRIRRRPPRLPRPRPRPWCQPRP	-0.26
RRIRTRPPRLPRPRPRPNRKPRP	-0.104
RRIRMRPPRLPRPRPRPFDVPRP	0.268
RRIRHRPPRLPRPRPRPVCAPRP	0.208
RRIRKRPPRLPRPRPRPIMMPRP	-0.0529
RRIRNRPPRLPRPRPRPIKSPRP	-0.245
RRIRCRPPRLPRPRPRPMEWPRP	0.0244
RRIRMRPPRLPRPRPRPHDQPRP	0.351
RRIRARPPRLPRPRPRPPLWPRP	1.17

Sequence	shrunken log2 fold change
RRIRMRPPRLPRPRPRPTPLPRP	1.01
RRIRTRPPRLPRPRPRPKIYPRP	-0.191
RRIRGRPPRLPRPRPRPRAWPRP	1.31
RRIRTRPPRLPRPRPRPNTQPRP	-0.0477
RRIRIRPPRLPRPRPRPINDPRP	-0.657
RRIRLRPPRLPRPRPRPIEHPRP	-0.31
RRIRMRPPRLPRPRPRPAFKPRP	-0.323
RRIRCRPPRLPRPRPRPCGPPRP	-0.104
RRIRERPPRLPRPRPRPRAKPRP	0.192
RRIRNRPPRLPRPRPRPCASPRP	-0.106
RRIRSRPPRLPRPRPRPSGIPRP	-0.169
RRIRSRPPRLPRPRPRPHMAPRP	-0.361
RRIRIRPPRLPRPRPRPFPGPRP	-0.155
RRIRIRPPRLPRPRPRPLAMPRP	-0.159
RRIRKRPPRLPRPRPRPSDQPRP	0.0938
RRIRCRPPRLPRPRPRPSDTPRP	-0.134
RRIRGRPPRLPRPRPRPIAEPRP	3.26
RRIRWRPPRLPRPRPRPILPPRP	-0.0759
RRIRMRPPRLPRPRPRPHQWPRP	0.121
RRIRERPPRLPRPRPRPLEDPRP	-0.157
RRIRNRPPRLPRPRPRPRWIPRP	0.0158
RRIRSRPPRLPRPRPRPAVTPRP	0.293
RRIRSRPPRLPRPRPRPGCLPRP	0.0602
RRIRMRPPRLPRPRPRPMVTPRP	0.131
RRIRVRPPRLPRPRPRPNKPPRP	-0.0479

Sequence	shrunken log2 fold change
RRIRPRPPRLPRPRPRPEFAPRP	0.602
RRIRHRPPRLPRPRPRPMKRPRP	0.0794
RRIRGRPPRLPRPRPRPLAAPRP	1.91
RRIRIRPPRLPRPRPRPTQSPRP	0.575
RRIRMRPPRLPRPRPRPHCPPRP	-0.506
RRIRIRPPRLPRPRPRPKCQPRP	-0.00871
RRIRFRPPRLPRPRPRPLIKPRP	-0.31
RRIRRRPPRLPRPRPRPWKRPRP	-0.0441
RRIRCRPPRLPRPRPRPQYFPRP	-0.252
RRIRNRPPRLPRPRPRPQMAPRP	-0.23
RRIRHRPPRLPRPRPRPCDAPRP	-0.0305
RRIRHRPPRLPRPRPRPRNKPRP	-0.2
RRIRDRPPRLPRPRPRPPKRPRP	-0.0222
RRIRQRPPRLPRPRPRPENWPRP	0.284
RRIRNRPPRLPRPRPRPEHMPRP	-0.0791
RRIRQRPPRLPRPRPRPKWNPRP	-0.216
RRIRYRPPRLPRPRPRPKPIPRP	0.0874
RRIRDRPPRLPRPRPRPMLYPRP	-0.0839
RRIRRRPPRLPRPRPRPWDIPRP	0.0194
RRIRYRPPRLPRPRPRPCWTPRP	-0.374
RRIRRRPPRLPRPRPRPVFKPRP	-0.0974
RRIRKRPPRLPRPRPRPCMPPRP	0.0752
RRIRFRPPRLPRPRPRPFQSPRP	-0.00947
RRIRGRPPRLPRPRPRPNKRPRP	0.26
RRIRKRPPRLPRPRPRPTARPRP	0.508

Sequence	shrunken log2 fold change
RRIRVRPPRLPRPRPRPPRWPRP	0.812
RRIRLRPPRLPRPRPRPYEIPRP	-0.012
RRIRARPPRLPRPRPRPQNGPRP	-0.106
RRIRRRPPRLPRPRPRPIWCPRP	-0.0104
RRIRWRPPRLPRPRPRPPSAPRP	0.744
RRIRDRPPRLPRPRPRPEANPRP	1.28
RRIRRRPPRLPRPRPRPSPHPRP	0.334
RRIRDRPPRLPRPRPRPQDAPRP	-0.103
RRIRGRPPRLPRPRPRPSASPRP	1.77
RRIRHRPPRLPRPRPRPINRPRP	0.0787
RRIRTRPPRLPRPRPRPPLRPRP	0.314
RRIRLRPPRLPRPRPRPIEKPRP	0.000506
RRIRKRPPRLPRPRPRPVKRPRP	0.0121
RRIRTRPPRLPRPRPRPQMEPRP	0.00225
RRIRIRPPRLPRPRPRPHAAPRP	-0.298
RRIRSRPPRLPRPRPRPIICPRP	-0.258
RRIRSRPPRLPRPRPRPPFNPRP	-0.298
RRIRERPPRLPRPRPRPRKQPRP	0.00709
RRIRDRPPRLPRPRPRPWIKPRP	0.00902
RRIRERPPRLPRPRPRPDSFPRP	0.0952
RRIRMRPPRLPRPRPRPMICPRP	-0.0412
RRIRKRPPRLPRPRPRPVIMPRP	0.137
RRIRARPPRLPRPRPRPVGGPRP	0.571
RRIRGRPPRLPRPRPRPQFEPRP	0.156
RRIRCRPPRLPRPRPRPWLMPRP	-0.159
